This passage reports Kd results from article PMC11686378.

The term Kd denotes the free concentration of one partner at which half of the binding sites on the other are occupied at equilibrium, for simple one-to-one binding. Read a high Kd as weaker binding.

This assay addresses Replication Protein A (RPA) heterotrimer from Pyrococcus abyssi, wild type (Pyrococcus abyssi). Briefly: BLI; RPA or RPA^ΔWH nucleoprotein filaments on a 3'-TEG-biotin 50-nt ssDNA held on streptavidin sensors; PriSL (1.56-100 nM) or PolD (15.62-1000 nM) in solution; steady-state analysis; 25 °C, buffer E with 0.2 mg/ml BSA. Background: Biolayer interferometry detects binding as a change in optical thickness at a sensor tip.

B1: DNA primase PriSL (PriS-PriL heterodimer) from P. abyssi, in solution (complex)
chain 1: MLLREVTKEERKEFYSNEWNAKQIPDFILQNLDKREFGFDHTGEGPSDRKNSYTDVRDLEDYIKATAPYAVYSSVAFYEKPQEMEGWLGAELVFDIDAKDLPLRRCNHEPGKVCPICLNDAKEIARDTLIVLKEELGFEDVHVVYSGRGYHIRVMDGWALSLDSKSRERILSFISASEIEDHSEFRKMLLERRGWFVLNHGYPRVFRLRFGYFILRVKVEHLINFGIRKNIAKRILDNKETIYEEFVRKGILAAFPDGVGIESLAKLFALSTRFSKAYFDGRVTVDLKRILRLPSTLHSKVGLIAKYIGNNERDVMRFNPFKHAVPKFRRKEVKEEYKRFLEENF
chain 2: MLDPFSEKAKELLKEFGSINDFLNSIPRIVDVEEVIERVKIASDRKLLEGFVDIEDIKDLAQFYALLGALSYSPYGLELELVKKANILLYSERIRREKEIRPEEISLRINKAIEFPIDDLKKIERVFGKLPEYTIHLAEFLDLIPGERLSEYYIYNGNVYLRKEDLIKVWMKAFERNIEKSVNMLYEIRDELPGFFREVLGGIKEVAEQEFGKSGEVKAGTLRPDLFPPCVKNALKGVPQGLRNYAITVLLTSFLSYARICPNPPRRNVRVKDCIDDIRIITDEILPLIIEAANRCSPPLFEDQPNEIKNIWYHLGFGYTANPKLEDSGNSTWYFPPNCDKIRANAPQLCTPDKHCKYVRNPLTYYLRRLYLEGRKNASKGGNERGEKRVLQQ
In the case of B1, the Kd worked out at 24 nM.
